Measurements taken from US20100261218A1.

T1: Synechocystis sp. PCC6803 fatty acid synthesis acyl carrier protein (SACP), P20804
T1 chain: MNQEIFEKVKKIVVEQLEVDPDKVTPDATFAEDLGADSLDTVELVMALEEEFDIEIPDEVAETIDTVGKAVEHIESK


Key:
[1] = target: Bacillus brevis ATCC8185 NRPS peptidyl carrier protein involved in tyrocidine biosynthesis (TycPCP)
[2] = target: N. punctiforme ATCC29133 PKS acyl carrier protein of nostopeptolide biosynthesis (NpACP)
[3] = target: N. punctiforme ATCC29133 PKS aryl carrier protein (ArCP) from HetM of glycolipid synthesis (NpArCP)
[4] = target: T1, Synechocystis sp. PCC6803 fatty acid …
[5] = target: Nostoc punctiforme NRPS peptidyl carrier protein (Nppcp), C-terminal NosA PCP of the putative nostopeptolide cluster

Row | Protein | percent of carrier protein phosphopantetheinylated (30 min in vitro assay, ESI-MS) [1] | phosphopantetheinylation of the carrier protein (30 min in vitro assay, ESI-MS) [2] | phosphopantetheinylation of the carrier protein (30 min in vitro assay, ESI-MS) [3] | phosphopantetheinylation of the carrier protein (10 min in vitro assay, ESI-MS, +340 Da) [4] | pantetheinylation of the carrier protein (30 min in vitro assay, ESI-MS) [3] | pantetheinylation of the carrier protein (30 min in vitro assay, ESI-MS) [5]
1 | Synechocystis sp. PCC6803 phosphopantetheinyl transferase (Sppt) (protein) MLPQPQIWLCPTDRPLIPGYQALLSSEEMARGERYQRPQDKQRFLTMRLALRILLARQLDCLPQQLQFTYGPQGKPELVDRERRSPWFNVAHSGNYGLIGLSTEGEIGVDLQIMLPKPHYLKLAKRFFAPQEVQQLESLEGEKRTKLFYQLWTAKEAFLKATGKGISGGLNQVIPDENLAKYQYLPDSGDTNHWRLSSQPLLADQGSNDNYWMAIAWCTNEVNQVESNYLPNIQPFQWPRNLDSLP | approximately 54% of the P. aeruginosa PAO1 NRPS TycPCP was phosphopantetheinylated by Sppt | Phosphopantetheinylated NpACP was not reproducibly detected after incubation with Sppt | Sppt was unable to phosphopantetheinylate the N. punctiforme ATCC29133 NpArCP as shown by mass spectrometry | After in vitro incubation with Sppt, SACP showed an increased abundance of phosphopantetheinylated carrier protein |  | 
2 | N. sp. heterocyst carrier protein synthase (NhcS), phosphopantetheinyl transferase from Nodularia spumigena NSOR10 (protein) MTALNHLWLPVPTNLTLLPNDVHIWRIHLDVPEAQQQNLLATLSGDELTRANRFHFQEHRQRFIAGRGILRSILGSYLGIEPQRVLFDYQERGKPILADSLAKSGLWFNLSHSQGLALCAVNYHNRIGIDLEYIRRMSDVEALAKRFFLPREYDVVRSLSDHQQQEIFFRYWTCKEAYLKATGEGLAQLEQVEVLLNPTEPAQLQTSESWSLFELRAAEDYFAAVVVEGSGCNLQCWQY |  |  |  |  | The conversion of the apo-ArCP (15.75 kDa) to the holo-ArCP (16.05 kDa) is seen | Nppcp was pantetheinylated
